Laboratory results reported in article PMC5551578 (The Journal of Experimental Medicine, 2017).

B1: H5-Ab2 (antibody, V domains shown)
VH: EVQLVQSGAEVKKPGSSVKVSCRSSGGPFRSNAISWVRQAPGQGLEWMGGIIAVFGTVEYAQKFQGRVTITADDSRSTVYMELRSLRSDDTAFYYCASAHGYHNYGSRGYFVSWGQGTLVTVSS
VL: DIVMTQSPGTLSLSPGERATLSCRASQSVSSNYLAWYQQKLGQPPRLLIYGASSRATGIPDRFSGSGSGTDFTLTISRLEPEDYAVYYCQQYGSSPHTFGQGTKVEIK
B2: H5-Ab4 (antibody, V domains shown)
VH: EVQLVESGGGAVQPGRSLRLSCAVSGFTFSSYGMNWVRQAPGKGLEWVAVISYDGSNTYYADSVKGRFTISRDDSKNTLFLQMNSLRADDTAVYYCAKDFQLRLLRYFDWLSSPFDHWGQGTLVTVSS
VL: DIQLTQSPGTLSLSPGERATLSCRASQSIRSNFLAWYQQTPGQGPRLLIYGASSRATGIPDRFSGSGSGTDFTLTISGLEPEDFAVYYCQQYASSPQTFGQGTKVEIK

Molecular target: T1, H1N1 HA (A/New Caledonia/20/1999), wild type (Influenza A virus A/New …, UniProt Q6WG00, strain)
T1 construct: also called H1 wt; source: provided by D. Lingwood
Assay: ELISA

Row | Binder | binding result
1 | B1 | binds
2 | B2 | binds
